Data as given in patent US20250368745A1 (published 2025).
Where two headings read alike, the source gives them in different places.

Assays:
[1] = target: hypo-IL-18 (IL-18 tethered to IL-18BP by a flexible linker with TEV site, 6xHis) (human); assay: BLI
[2] = target: T1, human IL-18BP (interleukin-18 binding protein, isoform A) (human, UniProt O95998 31-194); assay: cell-based or functional assay
T1 sequence: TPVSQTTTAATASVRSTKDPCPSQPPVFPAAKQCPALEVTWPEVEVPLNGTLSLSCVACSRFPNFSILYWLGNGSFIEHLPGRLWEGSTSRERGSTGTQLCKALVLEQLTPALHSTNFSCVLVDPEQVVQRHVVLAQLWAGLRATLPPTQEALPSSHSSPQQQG

[3] = target: T1, human IL-18BP (interleukin-18 binding …); assay: cell-based or functional assay; remark: listed apart in the source
[4] = target: T1, human IL-18BP (interleukin-18 binding …); assay: BLI (Octet), mAb on AHC biosensor
cynomolgus IL-18BP [5] = target: T2, cynomolgus IL-18BP (cynomolgus monkey); assay: BLI (Octet), mAb on AHC biosensor
T2 construct: Generated in-house; also called cyIL-18BP; cyno IL-18BP
T2 chain: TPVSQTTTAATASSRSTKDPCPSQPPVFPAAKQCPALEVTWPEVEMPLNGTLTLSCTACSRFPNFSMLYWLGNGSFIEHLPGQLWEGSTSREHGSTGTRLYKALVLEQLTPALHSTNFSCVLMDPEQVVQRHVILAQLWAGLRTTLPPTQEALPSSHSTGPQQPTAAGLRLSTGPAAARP

[6] = target: T1, human IL-18BP (interleukin-18 binding …); assay: cell-based or functional assay; remark: listed apart in the source
[7] = target: T1, human IL-18BP (interleukin-18 binding …); assay: BLI, affinity column of Table E8
[8] = target: T1, human IL-18BP (interleukin-18 binding …); assay: BLI (Octet), mAb on AHC biosensor; remark: listed apart in the source
cynomolgus IL-18BP [9] = target: T2, cynomolgus IL-18BP; assay: BLI (Octet), mAb on AHC biosensor
cynomolgus IL-18BP [10] = target: T2, cynomolgus IL-18BP; assay: ratio of BLI KDs, cyno against human IL-18BP

Chain of hypo-IL-18 (IL-18 tethered to IL-18BP by a flexible linker with TEV site, 6xHis) (human) (chain, as listed by the source limits assumed): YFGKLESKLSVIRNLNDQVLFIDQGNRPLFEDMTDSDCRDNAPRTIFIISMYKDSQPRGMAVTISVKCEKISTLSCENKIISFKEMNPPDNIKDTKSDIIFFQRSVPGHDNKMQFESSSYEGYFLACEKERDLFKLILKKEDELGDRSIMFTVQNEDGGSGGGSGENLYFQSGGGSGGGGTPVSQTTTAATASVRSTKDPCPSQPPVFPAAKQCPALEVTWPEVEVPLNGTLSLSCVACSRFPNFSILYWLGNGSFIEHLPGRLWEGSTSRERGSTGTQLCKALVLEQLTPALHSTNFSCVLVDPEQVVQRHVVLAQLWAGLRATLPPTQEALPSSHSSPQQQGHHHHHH

Binder	binding result [1]	EC50 (nM), HEK293 IL-18 Reporter Assay (SEAP) [2]	EC50 (nM), KG-1 Assay (IFNγ) [3]	Kd [4]	Kd (cynomolgus IL-18BP [5])	EC50 in PBMC Assay 1 (endogenous IL-18BP), IFNγ [6]	EC50 in PBMC Assay 2 (precomplexed IL-18BP), IFNγ [6]	Kd [7]	Kd [8]	Kd (cynomolgus IL-18BP [9])	Cyno/human (cynomolgus IL-18BP [10])
SA32a (antibody, human IgG1, V domains shown, murine variable regions on human IgG1 kappa constant regions) VH: EVQLQQSGPELVKTGASVKISCKASGYSFTGYYMHWVKQSHGKSLEWIGYISCYNGATSYNQKFKGKATFTVDTSSSTAYMQFNSLTSEDSAVYYCAITLHYAMDYWGQGTSVAS VL: DIVMTQAAFSNPVTLGTSASISCRSSKSLLHSNGITYLYWYLQKPGQSPQLLIYQMSNLASGVPDRFSSSGSGTDFTLRISRVEAEDVGVYYCAQNLELPWTFGGGTKLEIK	no binding	6.82 nM	109 nM	17 nM	19 nM						
SA34a (antibody, human IgG1, V domains shown, murine variable regions on human IgG1 kappa constant regions) VH: QVQLQQSGAELARPGASVKLSCKASGYTFTDYYINWVKQRTGQGLEWIGEIYPGSGNTYYNEKFKGKATLTADKSSSTAYMQLSSLTSEDSAVYFCARGYYGRFAYWGQGTLVTVSA VL: DIVMTQAAFSNPVTLGTSASISCRSSKSLLHSNGITYLYWYLQKPGQSPQLLIYQMSNLASGVPDRFSSSGSGTDFTLRISRVEAEDVGVYYCDQNLELPFTFGSGTKLEIK	no binding	5.02 nM	51 nM	18 nM	12 nM						
SA33a (antibody, human IgG1, V domains shown, murine variable regions on human IgG1 kappa constant regions) VH: QVQLQQSGAELVRPGVSVKISCKGSGYTFTDYAMHWVKQSHAKSLEWIGVISTYYGDASYNQKFKGKATMTVDKSSSTAYMELARLTSEDSAIYYCARERDYYGSRLFDYWGQGTTLTVSS VL: EIVLTQSPTTMAASPGEKITITCSANSSISSNYLHWYQQKPGFSPKLLIYGTSNLASGVPARFSGSGSGTSYSLTIGTMEAEDVATYYCQQGSSIPYTFGGGTKLEIK	no binding	0.36 nM	129 nM	3 nM	16 nM						
SA302a (antibody, human IgG1, V domains shown, humanized; human IgG1 (suffix a), kappa) VH: QVQLQESGPGLVKPSQTLSLTCTVSGYSITSDYNAHWIRQPPGKGLEWIGYIHYSGSTNYNPSLKSRVTISRDTSKNQFSLKLSSVTAADTAVYYCARNYGSIYVNYFDYWGQGTLVTVSS VL: EIVLTQSPATLSLSPGERATLSCSASSSVSYMYWYQQKPGQAPRPLIYRTSNLASGIPARFSGSGSGTDFTLTISSLEPEDFAVYYCQQYHSYPTFGGGTKVEIK						15 nM	2.15 nM	0.345 nM	0.345 nM	0.156 nM	0.45 ratio
SA320a (antibody, human IgG1, V domains shown, humanized; human IgG1 (suffix a), kappa) VH: QVQLQESGPGLVKPSQTLSLTCTVSGYSITQDYNAHWIRQPPGKGLEWIGYIHYSGQTYYNPSLKSRVTISRDTSKNQFSLKLSSVTAADTAVYYCARNFGSIYVNYFDYWGQGTLVTVSS VL: EIVLTQSPATLSLSPGERATLSCSASSSVSYMYWYQQKPGQAPRPLIYRTSNLASGIPARFSGSGSGTDFTLTISSLEPEDFAVYYCQQYHSYPTFGGGTKVEIK						0.3 nM	0.25 nM	0.052 nM	0.052 nM	0.02 nM	0.38 ratio
SA307a (antibody, human IgG1, V domains shown, humanized; human IgG1 (suffix a), kappa) VH: QVQLQESGPGLVKPSQTLSLTCTVSGYSITQDYNAHWIRQPPGKGLEWIGYIHYSGSTNYNPSLKSRVTISRDTSKNQFSLKLSSVTAADTAVYYCARNYGSIYVNYFDYWGQGTLVTVSS VL: EIVLTQSPATLSLSPGERATLSCSASSSVSYMYWYQQKPGQAPRPLIYRTSNLASGIPARFSGSGSGTDFTLTISSLEPEDFAVYYCQQYHSYPTFGGGTKVEIK						1.6 nM	1.47 nM	0.054 nM	0.054 nM	0.027 nM	0.5 ratio
SA340a (antibody, human IgG1, V domains shown, humanized; human IgG1 (suffix a), kappa) VH: QVQLQESGPGLVKPSQTLSLTCTVSGYSITQDYNAHWIRQPPGKGLEWIGYIHYSGQTYYNPSLKSRVTISRDTSKNQFSLKLSSVTAADTAVYYCARNFGSIYVNYFDYWGQGTLVTVSS VL: EIVLTQSPATLSLSPGERATLSCSASSSVSYMYWYQQKPGQAPRPLIYRTSNLASGIPARFSGSGSGTDFTLTISSLEPEDFAVYYCQQYHSYPKFGGGTKVEIK									0.027 nM	0.036 nM	1.33 ratio
SA303a (antibody, human IgG1, V domains shown, humanized; human IgG1 (suffix a), kappa) VH: QVQLQESGPGLVKPSQTLSLTCTVSGYSITSDYNAHWIRQPPGKGLEWIGYIHYSGSTNYNPSLKSRVTISRDTSKNQFSLKLSSVTAADTAVYYCARNFGSIYVNYFDYWGQGTLVTVSS VL: EIVLTQSPATLSLSPGERATLSCSASSSVSYMYWYQQKPGQAPRPLIYRTSNLASGIPARFSGSGSGTDFTLTISSLEPEDFAVYYCQQYHSYPTFGGGTKVEIK						1.6 nM	2.75 nM	0.182 nM	0.182 nM	0.077 nM	0.42 ratio
SA338a (antibody, human IgG1, V domains shown, humanized; human IgG1 (suffix a), kappa) VH: QVQLQESGPGLVKPSQTLSLTCTVSGYSITQDYNAHWIRQPPGKGLEWIGYIHYSGQTYYNPSLKSRVTISRDTSKNQFSLKLSSVTAADTAVYYCARNFGSIYVNYFDYWGQGTLVTVSS VL: EIVLTQSPATLSLSPGERATLSCSASSSVSYMYWYQQKPGQAPRPLIYRTSNLASGIPARFSGSGSGTDFTLTISSLEPEDFAVYYCQLYHSYPTFGGGTKVEIK						0.5 nM	0.33 nM	0.032 nM	0.032 nM	0.024 nM	0.67 ratio
SA310a (antibody, human IgG1, V domains shown, humanized; human IgG1 (suffix a), kappa) VH: QVQLQESGPGLVKPSQTLSLTCTVSGYSITSDYNAHWIRQPPGKGLEWIGYIHYSGSTMYNPSLKSRVTISRDTSKNQFSLKLSSVTAADTAVYYCARNYGSIYVNYFDYWGQGTLVTVSS VL: EIVLTQSPATLSLSPGERATLSCSASSSVSYMYWYQQKPGQAPRPLIYRTSNLASGIPARFSGSGSGTDFTLTISSLEPEDFAVYYCQQYHSYPTFGGGTKVEIK						1.9 nM	0.94 nM	0.175 nM	0.175 nM	0.028 nM	0.16 ratio
SA337a (antibody, human IgG1, V domains shown, humanized; human IgG1 (suffix a), kappa) VH: QVQLQESGPGLVKPSQTLSLTCTVSGYSITQDYNAHWIRQPPGKGLEWIGYIHYSGQTNYNPSLKSRVTISRDTSKNQFSLKLSSVTAADTAVYYCARNYGSIYVNYFDYWGQGTLVTVSS VL: EIVLTQSPATLSLSPGERATLSCSASSSVSYMYWYQQKPGQAPRPLIYRTSNLASGIPARFSGSGSGTDFTLTISSLEPEDFAVYYCQLYHSYPTFGGGTKVEIK						1 nM	0.58 nM	0.047 nM	0.047 nM	0.042 nM	0.89 ratio
SA330a (antibody, human IgG1, V domains shown, humanized; human IgG1 (suffix a), kappa) VH: QVQLQESGPGLVKPSQTLSLTCTVSGYSITSDYNAHWIRQPPGKGLEWIGYIHYSGQTYYNPSLKSRVTISRDTSKNQFSLKLSSVTAADTAVYYCARNFGSIYVNYFDYWGQGTLVTVSS VL: EIVLTQSPATLSLSPGERATLSCSASSSVSYMYWYQQKPGQAPRPLIYRTSNLASGIPARFSGSGSGTDFTLTISSLEPEDFAVYYCQQYHSYPTFGGGTKVEIK						21 nM	0.9 nM	0.076 nM	0.076 nM		
SA322a (antibody, human IgG1, V domains shown, humanized; human IgG1 (suffix a), kappa) VH: QVQLQESGPGLVKPSQTLSLTCTVSGYSITQDYNAHWIRQPPGKGLEWIGYIHYSGQTNYNPSLKSRVTISRDTSKNQFSLKLSSVTAADTAVYYCARNYGSIYVNYFDYWGQGTLVTVSS VL: EIVLTQSPATLSLSPGERATLSCSASSSVSYMYWYQQKPGQAPRPLIYRTSNLASGIPARFSGSGSGTDFTLTISSLEPEDFAVYYCQQYHSYPTFGGGTKVEIK						0.8 nM	0.53 nM	0.054 nM	0.054 nM	0.02 nM	0.37 ratio
SA309a (antibody, human IgG1, V domains shown, humanized; human IgG1 (suffix a), kappa) VH: QVQLQESGPGLVKPSQTLSLTCTVSGYSITSDYNAHWIRQPPGKGLEWIGYIHYSGQTNYNPSLKSRVTISRDTSKNQFSLKLSSVTAADTAVYYCARNYGSIYVNYFDYWGQGTLVTVSS VL: EIVLTQSPATLSLSPGERATLSCSASSSVSYMYWYQQKPGQAPRPLIYRTSNLASGIPARFSGSGSGTDFTLTISSLEPEDFAVYYCQQYHSYPTFGGGTKVEIK						2.8 nM	0.62 nM	0.061 nM	0.061 nM	0.024 nM	0.39 ratio
